Measured values from US20110091994A1, “Methods for Screening Compounds for Treating and/or Preventing an Hepatitis C Virus Infection” (priority 2008, published 2011).
Where two headings read alike, the source gives them in different places.

What was measured:
[1] = target: T1, HCV ORFs (Gal4-DB fusions) (Hepatitis C virus genotype 1b, UniProt Q9WMX2); format: binding, HCV genotype 1b, isolate con1; conditions: human protein as prey
T1 construct: expressed in transfected cells; host or cells: Saccharomyces cerevisiae MAV203 (IMAP1) / AH109 (IMAP2)

[2] = test system: HCV ORFs (Gal4-DB fusions); format: binding, HCV genotype 1b, isolate con1; conditions: human protein listed by gene symbol; the value names the HCV protein it interacts with
HCV proteins = target: T2, HCV proteins (Hepatitis C virus genotype 1b, UniProt Q9WMX2); assay: Validation by Y2H pairwise matrices; format: binding;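 further: yeast two-hybrid pairwise tests of interactions first found in Y2H screens of HCV bait proteins against human cDNA libraries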
T2 construct: expressed in transfected cells
Procedure: A comprehensive interactome map between HCV and cellular proteins was generated by Y2H screens. Twenty seven constructs encoding full-length HCV mature proteins or discrete domains were cloned using a recombination-based cloning system (10) (FIG. 6). Four independent screens were performed with each HCV bait protein, probing two distinct human cDNA libraries (Supplementary Methods). […] Two validation methods were used to assess the confidence of the IMAP Y2H dataset.

[3] = validation of interaction with HCV protein NS3
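Wherever IMAP Y2H IMAP1 (number of IST) is given: yeast two-hybrid screens using HCV genotype 1b proteins fused to Gal4-DB as baits against prey cDNA libraries from human spleen and foetal brain, IMAP1 via transformation and IMAP2 via mating.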
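Wherever Interaction with viral protein is given: yeast two-hybrid screens using HCV genotype 1b proteins fused to Gal4-DB as baits against prey cDNA libraries from human spleen and foetal brain, IMAP1 via transformation and IMAP2 via mating.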

Molecule	IMAP Y2H IMAP1 (number of IST) ([1]; HCV protein NS3 as bait)	Interaction with viral protein [2]	Y2H matrices (HCV proteins; [3])	IMAP Y2H IMAP1 (number of IST) ([1]; HCV protein NS2 as bait)	Y2H matrices (HCV proteins; validation of interaction with HCV protein NS2)
AEBP1 (protein, UniProt Q8IUX7 26-1158, looked up) Adipocyte enhancer-binding …: QTVLTDDEIEEFLEGFLSELEPEPREDDVEAPPPPEPTPRVRKAQAGGKPGKRPGTAAEVPPEKTKDKGKKGKKDKGPKVPKESLEGSPRPPKKGKEKPPKATKKPKEKPPKATKKPKEKPPKATKKPKEKPPKATKKPPSGKRPPILAPSETLEWPLPPPPSPGPEELPQEGGAPLSNNWQNPGEETHVEAREHQPEPEEETEQPTLDYNDQIEREDYEDFEYIRRQKQPRPPPSRRRRPERVWPEPPEEKAPAPAPEERIEPPVKPLLPPLPPDYGDGYVIPNYDDMDYYFGPPPPQKPDAERQTDEEKEELKKPKKEDSSPKEETDKWAVEKGKDHKEPRKGEELEEEWTPTEKVKCPPIGMESHRIEDNQIRASSMLRHGLGAQRGRLNMQTGATEDDYYDGAWCAEDDARTQWIEVDTRRTTRFTGVITQGRDSSIHDDFVTTFFVGFSNDSQTWVMYTNGYEEMTFHGNVDKDTPVLSELPEPVVARFIRIYPLTWNGSLCMRLEVLGCSVAPVYSYYAQNEVVATDDLDFRHHSYKDMRQLMKVVNEECPTITRTYSLGKSSRGLKIYAMEISDNPGEHELGEPEFRYTAGIHGNEVLGRELLLLLMQYLCREYRDGNPRVRSLVQDTRIHLVPSLNPDGYEVAAQMGSEFGNWALGLWTEEGFDIFEDFPDLNSVLWGAEERKWVPYRVPNNNLPIPERYLSPDATVSTEVRAIIAWMEKNPFVLGANLNGGERLVSYPYDMARTPTQEQLLAAAMAAARGEDEDEVSEAQETPDHAIFRWLAISFASAHLTLTEPYRGGCQAQDYTGGMGIVNGAKWNPRTGTINDFSYLHTNCLELSFYLGCDKFPHESELPREWENNKEALLTFMEQVHRGIKGVVTDEQGIPIANATISVSGINHGVKTASGGDYWRILNPGEYRVTAHAEGYTPSAKTCNVDYDIGATQCNFILARSNWKRIREIMAMNGNRPIPHIDPSRPMTPQQRRLQQRRLQHRLRLRAQMRLRRLNATTTLGPHTVPPTLPPAPATTLSTTIEPWGLIPPTTAGWEESETETYTEVVTEFGTEVEPEFGTKVEPEFETQLEPEFETQLEPEFEEEEEEEKEEEIATGQAFPFTTVETYTVNFGDF	2	NS3	+	–	–
ARS2 (protein, UniProt Q9BXP5 2-876, looked up) Serrate RNA effector molecule …: GDSDDEYDRRRRDKFRRERSDYDRSRERDERRRGDDWNDREWDRGRERRSRGEYRDYDRNRRERFSPPRHELSPPQKRMRRDWDEHSSDPYHSGYEMPYAGGGGGPTYGPPQPWGHPDVHIMQHHVLPIQARLGSIAEIDLGVPPPVMKTFKEFLLSLDDSVDETEAVKRYNDYKLDFRRQQMQDFFLAHKDEEWFRSKYHPDEVGKRRQEARGALQNRLRVFLSLMETGWFDNLLLDIDKADAIVKMLDAAVIKMEGGTENDLRILEQEEEEEQAGKPGEPSKKEEGRAGAGLGDGERKTNDKDEKKEDGKQAENDSSNDDKTKKSEGDGDKEEKKEDSEKEAKKSSKKRNRKHSGDDSFDEGSVSESESESESGQAEEEKEEAEEALKEKEKPKEEEWEKPKDAAGLECKPRPLHKTCSLFMRNIAPNISRAEIISLCKRYPGFMRVALSEPQPERRFFRRGWVTFDRSVNIKEICWNLQNIRLRECELSPGVNRDLTRRVRNINGITQHKQIVRNDIKLAAKLIHTLDDRTQLWASEPGTPPLPTSLPSQNPILKNITDYLIEEVSAEEEELLGSSGGAPPEEPPKEGNPAEINVERDEKLIKVLDKLLLYLRIVHSLDYYNTCEYPNEDEMPNRCGIIHVRGPMPPNRISHGEVLEWQKTFEEKLTPLLSVRESLSEEEAQKMGRKDPEQEVEKFVTSNTQELGKDKWLCPLSGKKFKGPEFVRKHIFNKHAEKIEEVKKEVAFFNNFLTDAKRPALPEIKPAQPPGPAQILPPGLTPGLPYPHQTPQGLMPYGQPRPPILGYGAGAVRPAVPTGGPPYPHAPYGAGRGNYDAFRGQGGYPGKPRNRMVRGDPRAIVEYRDLDAPDDVDFF	4	NS3	+	–	–
ACTN1 (protein, UniProt P12814 1-892, looked up) Alpha-actinin-1: MDHYDSQQTNDYMQPEEDWDRDLLLDPAWEKQQRKTFTAWCNSHLRKAGTQIENIEEDFRDGLKLMLLLEVISGERLAKPERGKMRVHKISNVNKALDFIASKGVKLVSIGAEEIVDGNVKMTLGMIWTIILRFAIQDISVEETSAKEGLLLWCQRKTAPYKNVNIQNFHISWKDGLGFCALIHRHRPELIDYGKLRKDDPLTNLNTAFDVAEKYLDIPKMLDAEDIVGTARPDEKAIMTYVSSFYHAFSGAQKAETAANRICKVLAVNQENEQLMEDYEKLASDLLEWIRRTIPWLENRVPENTMHAMQQKLEDFRDYRRLHKPPKVQEKCQLEINFNTLQTKLRLSNRPAFMPSEGRMVSDINNAWGCLEQVEKGYEEWLLNEIRRLERLDHLAEKFRQKASIHEAWTDGKEAMLRQKDYETATLSEIKALLKKHEAFESDLAAHQDRVEQIAAIAQELNELDYYDSPSVNARCQKICDQWDNLGALTQKRREALERTEKLLETIDQLYLEYAKRAAPFNNWMEGAMEDLQDTFIVHTIEEIQGLTTAHEQFKATLPDADKERLAILGIHNEVSKIVQTYHVNMAGTNPYTTITPQEINGKWDHVRQLVPRRDQALTEEHARQQHNERLRKQFGAQANVIGPWIQTKMEEIGRISIEMHGTLEDQLSHLRQYEKSIVNYKPKIDQLEGDHQLIQEALIFDNKHTNYTMEHIRVGWEQLLTTIARTINEVENQILTRDAKGISQEQMNEFRASFNHFDRDHSGTLGPEEFKACLISLGYDIGNDPQGEAEFARIMSIVDPNRLGVVTFQAFIDFMSRETADTDTADQVMASFKILAGDKNYITMDELRRELPPDQAEYCIARMAPYTGPDSVPGALDYMSFSTALYGESDL	9	NS3	+	–	–
ARHGEF6 (protein, UniProt Q15052 1-776, looked up) Rho guanine nucleotide …: MNPEEQIVTWLISLGVLESPKKTICDPEEFLKSSLKNGVVLCKLINRLMPGSVEKFCLDPQTEADCINNINDFLKGCATLQVEIFDPDDLYSGVNFSKVLSTLLAVNKATEDQLSERPCGRSSSLSAANTSQTNPQGAVSSTVSGLQRQSKTVEMTENGSHQLIVKARFNFKQTNEDELSVCKGDIIYVTRVEEGGWWEGTLNGRTGWFPSNYVREIKSSERPLSPKAVKGFETAPLTKNYYTVVLQNILDTEKEYAKELQSLLVTYLRPLQSNNNLSTVEVTSLLGNFEEVCTFQQTLCQALEECSKFPENQHKVGGCLLSLMPHFKSMYLAYCANHPSAVNVLTQHSDELEQFMENQGASSPGILILTTNLSKPFMRLEKYVTLLQELERHMEDTHPDHQDILKAIVAFKTLMGQCQDLRKRKQLELQILSEPIQAWEGEDIKNLGNVIFMSQVMVQYGACEEKEERYLMLFSNVLIMLSASPRMSGFIYQGKIPIAGTVVTRLDEIEGNDCTFEITGNTVERIVVHCNNNQDFQEWLEQLNRLIRGPASCSSLSKTSSSSCSAHSSFSSTGQPRGPLEPPQIIKPWSLSCLRPAPPLRPSAALGYKERMSYILKESSKSPKTMKKFLHKRKTERKPSEEEYVIRKSTAALEEDAQILKVIEAYCTSANFQQGHGSSTRKDSIPQVLLPEEEKLIIEETRSNGQTIMEEKSLVDTVYALKDEVRELKQENKRMKQCLEEELKSRRDLEKLVRRLLKQTDECIRGESSSKTSILP	1	NS3	+	–	–
ARFIP2 (protein, UniProt P53365 1-341, looked up) Arfaptin-2: MTDGILGKAATMEIPIHGNGEARQLPEDDGLEQDLQQVMVSGPNLNETSIVSGGYGGSGDGLIPTGSGRHPSHSTTPSGPGDEVARGIAGEKFDIVKKWGINTYKCTKQLLSERFGRGSRTVDLELELQIELLRETKRKYESVLQLGRALTAHLYSLLQTQHALGDAFADLSQKSPELQEEFGYNAETQKLLCKNGETLLGAVNFFVSSINTLVTKTMEDTLMTVKQYEAARLEYDAYRTDLEELSLGPRDAGTRGRLESAQATFQAHRDKYEKLRGDVAIKLKFLEENKIKVMHKQLLLFHNAVSAYFAGNQKQLEQTLQQFNIKLRPPGAEKPSWLEEQ	1	NS3	+	–	–
POU3F2 (protein, UniProt P20265 1-443, looked up) POU domain, class 3, …: MATAASNHYSLLTSSASIVHAEPPGGMQQGAGGYREAQSLVQGDYGALQSNGHPLSHAHQWITALSHGGGGGGGGGGGGGGGGGGGGGDGSPWSTSPLGQPDIKPSVVVQQGGRGDELHGPGALQQQHQQQQQQQQQQQQQQQQQQQQQRPPHLVHHAANHHPGPGAWRSAAAAAHLPPSMGASNGGLLYSQPSFTVNGMLGAGGQPAGLHHHGLRDAHDEPHHADHHPHPHSHPHQQPPPPPPPQGPPGHPGAHHDPHSDEDTPTSDDLEQFAKQFKQRRIKLGFTQADVGLALGTLYGNVFSQTTICRFEALQLSFKNMCKLKPLLNKWLEEADSSSGSPTSIDKIAAQGRKRKKRTSIEVSVKGALESHFLKCPKPSAQEITSLADSLQLEKEVVRVWFCNRRQKEKRMTPPGGTLPGAEDVYGGSRDTPPHHGVQTPVQ	–	NS2	–	1	+
ANKRD28 (protein, UniProt O15084 1-1053, looked up) Serine/threonine-protein …: MAFLKLRDQPSLVQAIFNGDPDEVRALIFKKEDVNFQDNEKRTPLHAAAYLGDAEIIELLILSGARVNAKDSKWLTPLHRAVASCSEEAVQVLLKHSADVNARDKNWQTPLHIAAANKAVKCAEALVPLLSNVNVSDRAGRTALHHAAFSGHGEMVKLLLSRGANINAFDKKDRRAIHWAAYMGHIEVVKLLVSHGAEVTCKDKKSYTPLHAAASSGMISVVKYLLDLGVDMNEPNAYGNTPLHVACYNGQDVVVNELIDCGAIVNQKNEKGFTPLHFAAASTHGALCLELLVGNGADVNMKSKDGKTPLHMTALHGRFSRSQTIIQSGAVIDCEDKNGNTPLHIAARYGHELLINTLITSGADTAKRGIHGMFPLHLAALSGFSDCCRKLLSSGFDIDTPDDFGRTCLHAAAAGGNLECLNLLLNTGADFNKKDKFGRSPLHYAAANCNYQCLFALVGSGASVNDLDERGCTPLHYAATSDTDGKCLEYLLRNDANPGIRDKQGYNAVHYSAAYGHRLCLQLIASETPLDVLMETSGTDMLSDSDNRATISPLHLAAYHGHHQALEVLVQSLLDLDVRNSSGRTPLDLAAFKGHVECVDVLINQGASILVKDYILKRTPIHAAATNGHSECLRLLIGNAEPQNAVDIQDGNGQTPLMLSVLNGHTDCVYSLLNKGANVDAKDKWGRTALHRGAVTGHEECVDALLQHGAKCLLRDSRGRTPIHLSAACGHIGVLGALLQSAASMDANPATADNHGYTALHWACYNGHETCVELLLEQEVFQKTEGNAFSPLHCAVINDNEGAAEMLIDTLGASIVNATDSKGRTPLHAAAFTDHVECLQLLLSHNAQVNSVDSTGKTPLMMAAENGQTNTVEMLVSSASAELTLQDNSKNTALHLACSKGHETSALLILEKITDRNLINATNAALQTPLHVAARNGLTMVVQELLGKGASVLAVDENGYTPALACAPNKDVADCLALILATMMPVSSSSPLSSLTFNAINRYTNTSKTVSFEALPIMRNEPSSYCSFNNIGGEQEYLYTDVDELNDSDSETY	1	NS3	+	–	–
